Results on 5 substances are retold here after US12062453B2, “Self-titrating bacterial protease-activated prodrug” (GEORGIA TECH RESEARCH CORPORATION, priority 2018, dated 2024).

In one data set the test system is DH5a Escherichia coli. Type of data set: cell-based. The procedure:
Bacterial culture and cytotoxicity measurement: DH5a Escherichia coli were a gift from Todd Sulchek's BioMEMS lab at Georgia Tech. E. coli were cultured in LB broth (Lennox) at 37 C and plated on LB agar (Lennox) plates. LB broth was purchased from Millipore Sigma (Burlington, Mass.) and LB agar was purchased from Invitrogen (Carlsbad, Calif.). AMP and locked AMP were custom ordered from Genscript (Piscataway, NJ). […] Concentration was estimated by measuring the OD600 of the bacterial suspension, and assuming an OD600 of 1.000 corresponds to a concentration of 8×10^8 CFU/mL. Bacterial cell viability was measured by making eight 10-fold serial dilutions, and plating three 10 uL spots on an LB agar plate. Plates were incubated overnight at 37° C., and CFUs were counted.

The target in data set [1] is T1, OmpT (Escherichia coli, UniProt P09169). Type of data set: cell-based, E. coli. Further details: OmpT expressed on the surface of E. coli; endogenous in cells; host or cells: DH5a Escherichia coli. As for the experimental part:
To model the rate of enzymatic activation of locked drugs, L, by OmpT, Michaelis-Menten (MM) kinetics were applied, where the rate of substrate activation is determined by the catalytic rate of the reaction, kcat, and the half-maximal substrate concentration, Km (Equation 1.3). Here it was assumed the system constituted a well-mixed solution of freely diffusing substrates (i.e., locked drug) in large excess, which were valid assumptions for this study since AMP prodrug was present at concentrations ˜102 micromolar in an aqueous environment. Because the total amount of drug is conserved, the MM activation rate of unlocked drug, U, was defined as opposite of the degradation rate of locked drug L (Equation 1.4). A term to account for the loss of active AMPS was included according to a proportionality constant, a*, that represents the number AMP required to kill one E. coli. This term was necessary as AMPS lyse E. coli by intercalating with bacterial membranes (Roversi, et al. ACS Chemical Biology, 9:2-3-2007 (2014)) and therefore are removed from the system and unable to target additional bacteria.
To fit this model to the disclosed system, the values for relevant parameters, including enzymatic efficiency (e.g., kcat, Km), bacterial growth (e.g., r, Bmax), and prodrug activity (e.g., a, a*) were measured (FIGS. 2A-2D, Table 2). This allowed for the prediction of bacteria-prodrug response curves (FIGS. 3B-3J) across nine distinct combinations of kcat and r values, which were experimentally controlled by altering the ambient temperature and concentration of broth (conditions labeled A1-3, B1-3, and C1-3). […] To experimentally validate the model predictions, bacteria were incubated with prodrugs under the defined nine conditions, and the number of living bacteria were quantified longitudinally over the course of a 24 hour treatment window. […]

In data set [2] the target is T2, OmpT expressed on the surface of E. coli (Escherichia coli, UniProt P09169).
T2 construct: OmpT expressed on the surface of E. coli; endogenous in cells; host or cells: DH5a Escherichia coli
T2 sequence (P09169 21-317): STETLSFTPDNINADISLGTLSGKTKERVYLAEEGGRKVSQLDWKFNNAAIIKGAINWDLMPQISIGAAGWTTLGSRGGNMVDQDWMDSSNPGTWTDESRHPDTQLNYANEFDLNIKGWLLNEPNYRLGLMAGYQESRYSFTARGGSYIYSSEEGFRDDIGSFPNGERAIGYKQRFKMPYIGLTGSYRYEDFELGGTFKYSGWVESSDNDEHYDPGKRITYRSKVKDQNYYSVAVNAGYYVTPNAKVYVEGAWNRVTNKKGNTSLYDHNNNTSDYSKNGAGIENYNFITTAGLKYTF
Format: cell-based.

For data set [3], the target named is T1, OmpT. Format: biochemical, E. coli. Further details: purchased Lifespan Biosciences (Seattle, WA). The procedure:
Protease Cleavage Assays: All protease cleavage assays were performed with a BioTek Cytation 5 Imaging Plate Reader, taking fluorescent measurements at 485/528 nm (excitation/emission) for read-outs measuring peptide substrates terminated with FITC (Fluorescein isothiocyanate). Kinetic measurements were taken every minute over the course of 60-120 minutes at 37 C. Tobacco Etch Virus protease (TEVp), along with its substrate and buffer was obtained from Anaspec, Inc. (Fremont, Calif.). Activity RFU measurements were normalized to time 0 measurement, and as such represent fold change in signal. Outer Membrane Protease T (i.e., OmpT, Protease 7) was purchased from Lifespan Biosciences (Seattle, WA). OmpT fluorescent peptide substrate was custom ordered from Genscript (Piscataway, NJ).

Where two headings read alike, the source gives them in different places.

T1 sequence (P09169 21-317): as above

In the case of “AMP: cationic (polyarginine) antimicrobial peptide, the unlocked drug (KLAKLAKKLAKLAK; Bacterial protease substrate)”, in the data set with DH5a Escherichia coli, the “Cytotoxicity of unlocked drug (colonies)” value is given as “significant reduction in colonies”. Besides, in the data set with OmpT [1], the “a*, AMP decay (number of AMP required to kill one E. coli)” value was determined as 2.4e11 AMP/bacteria and the “a, cytotoxic efficiency, EC50” value is given as 1e11 h^−1, AMP/bacteria/hr.

On to Aprotinin, for which the “OmpT activity in samples containing inhibitor” value (in data set [2] (live E. coli culture plus inhibitor); on OmpT [3] (recombinant OmpT plus inhibitor)) was “no activity was observed” in each case. Besides, the “Bacteria load after prodrug treatment” value in the data set on DH5a Escherichia coli (locked AMP plus Aprotinin inhibitor) is “did not significantly reduce bacteria load”.

As for “EEEEEEEEEEEEERRSRRVRRRRRRRRR [Locked AMP (linker 1)]”, in the data set with DH5a Escherichia coli (prodrug alone), the “Bacteria load after prodrug treatment” value is on record as “Elimination of bacteria”. In addition, the “Km, Michaelis constant” value with OmpT [1] came to 9e+12 µL⁻¹. In addition, the kcat is 25 h^−1 × 10^10 in the data set with OmpT [1] (condition A1: 37 °C, LB broth 0%); 13.6 h^−1 × 10^10 with OmpT [1] (condition A2: 30 °C, LB broth 2%); 22 h^−1 × 10^10 in the data set with OmpT [1] (condition A3: 37 °C, LB broth 2%); 15 h^−1 × 10^10 with OmpT [1] (condition B1: 37 °C, LB broth 4%); 13.6 h^−1 × 10^10 with OmpT [1] (condition B2: 37 °C, LB broth 6%); 1 h^−1 × 10^10 with OmpT [1] (condition B3: 37 °C, LB broth 20%). For the same substance, the kcat with OmpT [1] (condition C1: 30 °C, LB broth 20%) is given as 5.2 h^−1 × 10^10; with OmpT [1] (condition C2: 30 °C, LB broth 66%), 4 h^−1 × 10^10; with OmpT [1] (condition C3: 37 °C, LB broth 66%), 6 h^−1 × 10^10. In the data set with OmpT [1] (range over conditions), the “kcat, enzyme catalytic turnover” value was 0.7-25e10 h^−1.

In the case of “EEEEEEEEENLYFQGRRRRRRRRR [Locked AMP (linker 3)]”, the “Bacteria load after prodrug treatment” value in the data set on DH5a Escherichia coli (prodrug alone) is listed as “did not significantly reduce bacteria load”; with DH5a Escherichia coli (prodrug plus TEV protease), “Elimination of bacteria”.

For DABCYL-RRSRRV-Lys(5-FAM) [OmpT Probe], the “OmpT cleavage activity against fluorophore-quencher linker probe” value (in data set [2] (live E. coli culture); on OmpT [3] (recombinant OmpT)) was “OmpT activity was detected” throughout.
